B1: Mdh3-MGA3: NAD-dependent methanol dehydrogenase encoded by chromosomal gene mdh3 of B. methanolicus MGA3, SEQ ID NO. 4 (protein)
chain: MKNTQSAFYMPSVNLFGAGSVNEVGTRLAGLGVKKALLVTDAGLHSLGLSEKIAGIIREAGVEVAIFPKAEPNPTDKNVAEGLEAYNAENCDSIVTLGGGSSHDAGKAIALVAANGGTIHDYEGVDVSKKPMVPLIAINTTAGTGSELTKFTIITDTERKVKMAIVDKHVTPTLSINDPELMVGMPPSLTAATGLDALTHAIEAYVSTGATPITDALAIQAIKIISKYLPRAVANGKDIEAREQMAFAQSLAGMAFNNAGLGYVHAIAHQLGGFYNFPHGVCNAILLPHVCRFNLISKVERYAEIAAFLGENVDGLSTYEAAEKAIKAIERMARDLNIPKGFKELGAKEEDIETLAKNAMNDACALTNPRKPKLEEVIQIIKNAM
modifications: Bacillus methanolicus MGA3
B2: Mdh-MGA3: previously reported plasmid pBM19-encoded NAD-dependent methanol dehydrogenase of B. methanolicus MGA3, SEQ ID NO. 8 (protein)
chain: MTTNFFIPPASVIGRGAVKEVGTRLKQIGAKKALIVTDAFLHSTGLSEEVAKNIREAGVDVAIFPKAQPDPADTQVHEGVDVFKQENCDSLVSIGGGSSHDTAKAIGLVAANGGRINDYQGVNSVEKPVVPVVAITTTAGTGSETTSLAVITDSARKVKMPVIDEKITPTVAIVDPELMVKKPAGLTIATGMDALSHAIEAYVAKGATPVTDAFAIQAMKLINEYLPKAVANGEDIEAREKMAYAQYMAGVAFNNGGLGLVHSISHQVGGVYKLQHGICNSVNMPHVCAFNLIAKTERFAHIAELLGENVAGLSTAAAAERAIVALERINKSFGIPSGYAEMGVKEEDIELLAKNAYEDVCTQSNPRVPTVQDIAQIIKNAM
modifications: Bacillus methanolicus MGA3
B3: Mdh2-MGA3: NAD-dependent methanol dehydrogenase encoded by chromosomal gene mdh2 of B. methanolicus MGA3, SEQ ID NO. 2 (protein)
chain: MTNTQSAFFMPSVNLFGAGSVNEVGTRLADLGVKKALLVTDAGLHGLGLSEKISSIIRAAGVEVSIFPKAEPNPTDKNVAEGLEAYNAENCDSIVTLGGGSSHDAGKAIALVAANGGKIHDYEGVDVSKEPMVPLIAINTTAGTGSELTKFTIITDTERKVKMAIVDKHVTPTLSINDPELMVGMPPSLTAATGLDALTHAIEAYVSTGATPITDALAIQAIKIISKYLPRAVANGKDIEAREQMAFAQSLAGMAFNNAGLGYVHAIAHQLGGFYNFPHGVCNAVLLPYVCRFNLISKVERYAEIAAFLGENVDGLSTYDAAEKAIKAIERMAKDLNIPKGFKELGAKEEDIETLAKNAMKDACALTNPRKPKLEEVIQIIKNAM
modifications: Bacillus methanolicus MGA3

What was measured:
[1] = In vivo Mdh activity in cell suspensions of recombinant E. coli (formaldehyde accumulating in supernatant); format: cell-based; conditions: E. coli cell suspension
From the text: (§1) The genes coding for Mdh and the Mdh activator protein Act were amplified from pET21a-plasmids harboring genes from B. methanolicus strains MGA3 (mdh-MGA3, mdh2-MGA3, mdh3-MGA3 and act-MGA3) and PB1 (mdh-PB1, mdh1-PB1 and mdh2-PB1). The genes were then cloned either into the pSEVA424 plasmid (mdh genes) or in the pSEVA131 plasmid (act gene). For cloning of mdh-MGA3, mdh-PB1, mdh1-PB1 and act-MGA3, EcoRI and HindIII restrictions sites were used, while mdh2-MGA3, mdh2-PB1 and mdh3-MGA3 were cloned by using EcoRI and PstI restriction sites. The resulting expression vectors were transformed into electrocompetent wt E. coli K-12 (BW25113) and into E. coli K-12 (BW25113) with a deleted frmA gene.
(§2) Expression Experiments For expression experiments, the cells were cultivated in either Luria-Bertani (LB) medium for in vitro assays or in M9 medium for in vivo assays both containing 20 μg/ml streptomycin for pSEVA424. When Act was co-expressed the medium was supplemented with 100 μg/ml ampicillin. Expression was induced when cells reached OD 0.5 (for in vitro tests) or OD 1 (for in vivo tests) by adding 0.1 mM IPTG (final concentration) for 6 hours. Cells were then harvested by centrifugation. For in vitro assays, crude cell extract was prepared by lysing the cells in a French press following ultracentrifugation. Alternatively, cells were resuspended in M9-medium without glucose for in vivo activity measurements. Enzyme Assays
In vivo measurements of Mdh activity: For determination of Mdh activity in cell suspensions, cells were harvested after IPTG induction, washed and resuspended in M9-medium without glucose and IPTG. OD600 was set to 1 for normalization. […] The assay was started by addition of 1 M methanol and subsequent measurement of accumulating formaldehyde in the supernatant resulting from the methanol dehydrogenase catalyzed oxidation of methanol. The calculated activities were based on the assumption that 1 l of an OD1 culture contains 0.3 g biomass of which 50% is protein.

[2] = Formaldehyde reductase assay of purified MDH proteins; format: biochemical; conditions: 45° C., formaldehyde reductase activity; for Km: read-out: Km, variable substrate Formaldehyde
Protocol: Alcohol dehydrogenase activities were measured spectrophotometrically essentially as described previously (Hektor, Kloosterman et al. (2002) Chem 277(49): 46966-46973) and the reaction mixture contained: 100 mM Glycine-KOH pH 9.5 (unless otherwise stated), 5 mM MgSO4, 0.5 mM NAD^+ and 500 mM alcohol (methanol, ethanol, propanol, 1,3-propanediol, or butanol). NAD^+ was substituted with equal concentrations of NADP^+, FMN^+, and FAD^+, when indicated. The reaction mixture for measurements of formaldehyde reductase activity contained: 50 mM Potassium-phosphate buffer pH=6.7, 0.15 mM NADH, 1 mM DTT and 11.6 mM (0.1-116 mM) formaldehyde. The assay components were mixed in the cuvette and pre-warmed to 45° C., unless otherwise stated. The reactions were started by addition of 5-40 μg of the purified MDH proteins, and the production of NADH was monitored at 340 nm for 4 minutes. One unit of MDH activity was defined as the amount of enzyme needed to produce 1 μmol NADH per minute under the conditions described above. Purified Act (0.1-40 μg) or NudF (20 μg) proteins were added to the reaction mixtures as indicated in the text.
The purified MDH and Act proteins (20 μg) were used in the kinetic experiments performing the methanol dehydrogenase and the formaldehyde dehydrogenase assays essentially as described above. […] For determination of the Km for NAD^+ (Km,NAD+) and Vmax, the methanol concentration was kept constant at a saturating level (500 mM), while the concentration of NAD^+ was varied (5-1000 μM). […] Act (20 μg) was added to the reaction mixtures for determination of Kμ,MεOH and Vmax values in the presence of this activator, as indicated in the text. In general, the slopes of activity versus time were linear in the measured period (data not shown). Km and Vmax values were calculated by using nonlinear regression with the Microsoft Excel solver-tool to fit the measured data to the Michaelis-Menten equation, as described previously (Jakobsen et al., (2009) Appl Environ Microbiol 75(3): 652-661). The values obtained from the regression were then compared to the values obtained from Lineweaver-Burk and Hanes-Woolf plots to ensure that the global minimum, not a local minimum, had been found.

[3] = In vitro Mdh activity in crude cell extracts of recombinant E. coli; format: biochemical; conditions: for In vitro activity: expressed in E. coli, crude cell extract; for ranking of Mdh activity on expression in E. coli: in vitro and in vivo
From the text: as §1, §2
In vitro measurements of Mdh activity: For determination of Mdh activity in crude cell extracts, the Mdh dependent formation of NADH was monitored at 340 nm. The assays were performed either at 37° C. or 45° C. in prewarmed buffer solutions. The Mdh assay contained 10-20 μg enzyme, 50 mM K2HPO4-buffer, pH7.4, 2.5 mM MgCl and 0.5 mM of NAD^+ (final concentrations). After 5 min of preincubation, the reaction was started with 1 M of methanol (final concentration).

| Molecule | In vivo activity ([1]; 37° C., +Act) [mU/mg] | In vivo activity ([1]; 37° C., −Act) [mU/mg] | In vivo activity ([1]; 42° C., +Act) [mU/mg] | In vivo activity ([1]; 42° C., −Act) [mU/mg] | Vmax, variable substrate Formaldehyde [2] [U/mg] | Km [2] [mM] | In vitro activity ([3]; 37° C., +Act) [mU/mg] | In vitro activity ([3]; 37° C., −Act) [mU/mg] | In vitro activity ([3]; 45° C., +Act) [mU/mg] | In vitro activity ([3]; 45° C., −Act) [mU/mg] | ranking of Mdh activity on expression in E. coli [3] | ranking of Mdh activity on expression in E. coli ([3]; listed as MGA3-Mdh2) |
| --- | --- | --- | --- | --- | --- | --- | --- | --- | --- | --- | --- | --- |
| B1 | 11 | 24 | 24 | 31 | 5 | 15 | 327 | 21 | 867 | 113 |  |  |
| B2 | 1 | 1 | 1 | 3 | 1.4 | 1 | 464 | 48 | 1260 | 251 |  |  |
| B3 | 9 | 32 | 11.3 | 45 | 1.5 | 5 | 672 | 59 | 1910 | 310 | gave the best results | overall highest activities both in vitro and in vivo |
